This is an account of results in PMC10154249, “Unique progerin C-terminal peptide ameliorates Hutchinson–Gilford progeria syndrome phenotype by rescuing BUBR1” (Nature Aging, 2023).

The experiment concerns the target T1, Flag-BUBR1 (human, UniProt O60566 1-1050).
T1 construct: also called Flag beads-BUBR1; source: eluted with 3×Flag peptide for MST, left on Flag beads for the pull-down
In words: pull-down; 10 μg purified His-UPCP incubated with Flag beads, Flag beads-BUBR1 or Flag beads-PTBP1 for 16 h at 4 °C; beads washed three times with PBS. As to conditions: both partners purified.

T1 sequence (O60566 whole entry): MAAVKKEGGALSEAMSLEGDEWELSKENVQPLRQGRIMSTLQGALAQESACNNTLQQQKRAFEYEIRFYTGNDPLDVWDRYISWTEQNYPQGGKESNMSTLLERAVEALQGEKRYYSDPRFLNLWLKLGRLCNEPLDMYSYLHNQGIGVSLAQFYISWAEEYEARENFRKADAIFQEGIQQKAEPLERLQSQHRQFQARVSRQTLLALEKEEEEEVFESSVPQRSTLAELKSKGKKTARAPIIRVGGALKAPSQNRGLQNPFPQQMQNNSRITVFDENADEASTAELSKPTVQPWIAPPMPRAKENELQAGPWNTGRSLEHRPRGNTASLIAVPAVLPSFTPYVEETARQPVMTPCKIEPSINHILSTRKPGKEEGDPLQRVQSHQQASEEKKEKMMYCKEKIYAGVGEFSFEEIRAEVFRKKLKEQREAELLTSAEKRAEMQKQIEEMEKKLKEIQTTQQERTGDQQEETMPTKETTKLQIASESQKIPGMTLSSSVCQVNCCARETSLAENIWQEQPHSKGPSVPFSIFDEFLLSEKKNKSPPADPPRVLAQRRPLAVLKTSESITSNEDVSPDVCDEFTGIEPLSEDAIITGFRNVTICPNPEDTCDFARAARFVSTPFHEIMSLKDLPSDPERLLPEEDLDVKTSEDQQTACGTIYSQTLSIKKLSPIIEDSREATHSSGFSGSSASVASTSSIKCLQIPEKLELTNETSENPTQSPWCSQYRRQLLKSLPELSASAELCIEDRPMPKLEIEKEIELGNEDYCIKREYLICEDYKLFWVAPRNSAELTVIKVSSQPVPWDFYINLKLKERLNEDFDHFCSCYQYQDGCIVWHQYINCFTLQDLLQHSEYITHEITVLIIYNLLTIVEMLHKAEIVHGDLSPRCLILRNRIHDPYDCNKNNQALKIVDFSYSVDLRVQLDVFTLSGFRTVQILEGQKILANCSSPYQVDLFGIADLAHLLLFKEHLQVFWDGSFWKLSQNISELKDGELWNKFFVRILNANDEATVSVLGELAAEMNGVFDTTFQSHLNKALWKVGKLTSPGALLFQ

In the case of YGRKKRRQRRRYNLRSRTVLCGTCGQPADKASASGSGAQSPQNCSIM (also called His-tagged UPCP) [His-UPCP], the binding result was “binds”.
